For experiment [1], the target named is human TIM-3 ECD fused C-terminally to human IgG1 Fc (made in-house, ExpiCHO) (human) (UniProt Q8TDQ0). Nature of the experiment: SPR (IBIS MX96); TIM-3 ECD-Fc captured on anti-human IgG Fc sensor, Fab injected 1-100 nM; 1:1 Langmuir fit.
Experiment [2] concerns the target cynomolgus TIM-3 ECD fused C-terminally to human IgG1 Fc (made in-house, ExpiCHO) (cynomolgus monkey (Macaca fascicularis); human). Described as above.
Experiment [3] addresses R-PE-labeled human TIM-3-Fc chimera protein (R&D Systems) (human) (UniProt Q8TDQ0). Nature of the experiment: flow cytometry competition; R-PE TIM-3-Fc preincubated with 3.125 µg/ml antibody, then apoptotic Jurkat cells showing phosphatidylserine. Background: Flow cytometry measures light scatter and fluorescence of single cells or particles in a stream.
The target is the same in experiment [4]. The experiment in a line: flow cytometry competition: R-PE-labelled TIM-3-Fc pre-mixed with titrated antibody, then binding to phosphatidylserine-positive apoptotic Jurkat cells; blocked ligand: phosphatidylserine [continued) C].
The target is the same in experiment [5]. The experiment in a line: flow cytometry competition: R-PE-labelled TIM-3-Fc pre-mixed with titrated antibody, then binding to phosphatidylserine-positive apoptotic Jurkat cells (MFI); blocked ligand: phosphatidylserine; unit taken from the axis log(Concentration) µg/ml [continued) C].
The target of experiment [6] is cynomolgus TIM-3 Fc fusion antigen (Sino Biologicals) (cynomolgus monkey (Macaca fascicularis)). Nature of the experiment: ELISA; TIM-3 Fc fusion coated at 1 µg/ml, antibody titrated 2-fold from 1000 nM, HRP secondary. A general note: ELISA stands for enzyme-linked immunosorbent assay.
The target of experiment [7] is human TIM-3 Fc fusion antigen (Sino Biologicals) (human) (UniProt Q8TDQ0). The description is as above.
The target of experiment [8] is cynomolgus TIM-3 Fc fusion antigen (Sino Biologicals) (cynomolgus monkey (Macaca fascicularis)). The experiment in a line: ELISA; EC50 on cynomolgus TIM-3 over EC50 on human TIM-3.

Broadly, the Kd is the free concentration of one partner at which half of the binding sites on the other are occupied at equilibrium, for simple one-to-one binding. Broadly, the IC50 is the concentration that inhibits the measured activity by half. As usually defined, the EC50 is the concentration that produces a half-maximal response.

cynomolgus TIM-3 ECD fused C-terminally to human IgG1 Fc (made in-house, ExpiCHO) (cynomolgus monkey (Macaca fascicularis); human), sequence (chain, as listed by the source limits assumed): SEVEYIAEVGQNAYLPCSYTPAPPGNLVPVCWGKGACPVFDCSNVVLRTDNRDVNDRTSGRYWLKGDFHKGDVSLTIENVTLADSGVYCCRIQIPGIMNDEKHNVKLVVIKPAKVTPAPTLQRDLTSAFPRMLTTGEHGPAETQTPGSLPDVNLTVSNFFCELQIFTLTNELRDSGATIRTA

Take “Fab fragment of 18564 ABTIM3 (reference analogue)”: the Kd in experiment [1] was 770 pM; in experiment [2] it was 25000 pM.

In experiment [3], “reference anti-TIM-3 antibody 18571.18571 (humanized ABTIM3 analogue)” showed a TIM-3-Fc binding to PtdS-positive cells left, % of the binding with non-blocking antibody 15338.15338 of 3.2%. Moreover, in experiment [4], the TIM-3 binding (MFI) at 0.003 µg/ml antibody stood at 8700 MFI, the TIM-3 binding (MFI) at 0.012 µg/ml antibody was found to be 8730 MFI, the TIM-3 binding (MFI) at 0.049 µg/ml antibody was 8890 MFI and the TIM-3 binding (MFI) at 0.195 µg/ml antibody was 8800 MFI. In experiment [4], this substance registered a TIM-3 binding (MFI) at 0.781 µg/ml antibody of 4480 MFI, a TIM-3 binding (MFI) at 3.125 µg/ml antibody of 184 MFI, a TIM-3 binding (MFI) at 12.5 µg/ml antibody of 160 MFI and a TIM-3 binding (MFI) at 50 µg/ml antibody of 157 MFI. Also, the IC50 in experiment [5] worked out at 0.782 µg/mL.

For the substance “reference antibody analogue 18564 ABTIM3”, the EC50 in experiment [6] and in experiment [7] was 70 pM each time. For the same substance, the Ratio Cynomolgus/Human EC50 in experiment [8] worked out at 1.

The values above are taken from patent US20190276531A1.
